Marks after values point to notes of the source that are not given here.
System: patients with acute heart failure (AHF)
Assay: Safety endpoints (adverse events, blood pressure, renal impairment, clinical laboratory), Pre-RELAX-AHF trial
Type: in vivo, human
Settings: for change from baseline in mean hematocrit at 48 hours: described as transient decrease; for Total number of SAEs: to Day 30
Method: Study Procedures. The study was approved by the relevant ethics committees, institutional review hoards and regulatory authorities, and conducted under the International Conference on Harmonization Good Clinical Practice guidelines. All patients provided informed written consent prior to participation. […] The placebo used for the study was the same solution as the diluent used to prepare the 100 μg/kg/day dose. The randomization ratio was 3:2:2:2:2, respectively, Relaxin (Corthera, San Mateo, Calif.) was manufactured using recombinant techniques and was identical to the naturally-occurring peptide hormone. By protocol, the study drug infusion was to be terminated if the patient's SBP was reduced to <100 mmHg or by >40 mmHg compared to baseline in two successive measurements, 15 minutes apart. Investigators were not prohibited from utilizing any standard medication, thought necessary to treat patients enrolled in the study, including additional vasodilators, following a 4-hour washout period during which time IV vasodilators, IV pure inotropes and meals were withheld, hemodynamic, renal, and clinical responses to 48 hours of study drug infusion were assessed.
Study Endpoints. […] 4.) Length of initial hospital stay.

**Q.** How did the “Renal impairment: Patients with ≧25% increase in creatinine at Day 5” value (30 mcg/kg/d IV 48 h) turn out when Relaxin was run?
**A.** 9 (22.0%) n (%)

**Q.** And the “SAE to Day 30: Acute respiratory failure, n (%)” value (30 mcg/kg/d IV 48 h)?
**A.** 0 n (%)

**Q.** And the “SAE to Day 30: Bronchitis, n (%)” value (30 mcg/kg/d IV 48 h)?
**A.** 1 (2.4%) n (%)

**Q.** What about the “SAE to Day 30: Cardiac failure, n (%)” value (30 mcg/kg/d IV 48 h) of the same substance?
**A.** 1 (2.4%) n (%)

**Q.** And the “SAE to Day 30: Cerebrovascular accident, n (%)” value (30 mcg/kg/d IV 48 h)?
**A.** 2 (4.8%) n (%)

**Q.** And the “SAE to Day 30: Hypotension, n (%)” value (30 mcg/kg/d IV 48 h)?
**A.** 0 n (%)

**Q.** What about the “SAE to Day 30: Noncardiac chest pain, n (%)” value (30 mcg/kg/d IV 48 h) of the same substance?
**A.** 0 n (%)

**Q.** And the “SAE to Day 30: Pneumonia, n (%)” value (30 mcg/kg/d IV 48 h)?
**A.** 3 (7.1%) n (%)

**Q.** And the “SAE to Day 30: Renal failure, n (%)” value (30 mcg/kg/d IV 48 h)?
**A.** 1 (2.4%) n (%)

**Q.** And the “SAE to Day 30: Urinary retention, n (%)” value (30 mcg/kg/d IV 48 h)?
**A.** 0 n (%)

**Q.** What about the “SAE to Day 30: Urinary tract infection, n (%)” value (30 mcg/kg/d IV 48 h) of the same substance?
**A.** 1 (2.4%) n (%)

**Q.** And the “SAE to Day 30: Ventricular fibrillation, n (%)” value (30 mcg/kg/d IV 48 h)?
**A.** 0 n (%)

**Q.** And the “mean change in creatinine from baseline at Day 14” value (from here on “mean change in creatinine”) (30 mcg/kg/d IV 48 h)?
**A.** 0.13 ± 0.49 mg/dL

**Q.** And the “mean decrease in SBP compared to placebo during infusion” value (30 mcg/kg/d IV 48 h)?
**A.** 3-4 mmHg

**Q.** What about the “patients requiring treatment of blood pressure reduction” value (30 mcg/kg/d IV 48 h) of the same substance?
**A.** None of the patients

**Q.** What about the “proportion of patients at Day 14 with an increase in creatinine of 0.3 mg/dL or more” value (30 mcg/kg/d IV 48 h) of the same substance?
**A.** 26.3%

**Q.** What about the “change from baseline in mean hematocrit at 48 hours” value (from here on “change from baseline”) (30 mcg/kg/d IV 48 h) of the same substance?
**A.** 1.45%

**Q.** And the “Patients with any AE from Day 15 to Day 30, n (%)” value (100 mcg/kg/d IV 48 h)?
**A.** 2 (5.3%) n (%)

**Q.** And the “Patients with any SAEs to Day 30, n (%)” value (100 mcg/kg/d IV 48 h)?
**A.** 3 (7.9%) n (%)

**Q.** And the “Patients with any adverse events to Day 30, n (%)” value (100 mcg/kg/d IV 48 h)?
**A.** 24 (63.2%) n (%)

**Q.** And the “Protocol-specified study drug discontinuation due to blood pressure reduction” value (100 mcg/kg/d IV 48 h)?
**A.** 7.9%

**Q.** What about the “Renal impairment: Patients with ≧0.3 mg/dL increase in creatinine at Day 5” value (100 mcg/kg/d IV 48 h) of the same substance?
**A.** 9 (26.5%) n (%)

**Q.** What about the “Renal impairment: Patients with ≧0.3 mg/dL increase in creatinine at Day 5 and Day 14” value (100 mcg/kg/d IV 48 h) of the same substance?
**A.** 4 (10.8%) n (%)

**Q.** And the “Renal impairment: Patients with ≧25% increase in creatinine at Day 5” value (100 mcg/kg/d IV 48 h)?
**A.** 11 (29.7%) * n (%)

**Q.** And the “SAE to Day 30: Acute respiratory failure, n (%)” value (100 mcg/kg/d IV 48 h)?
**A.** 1 (2.6%) n (%)

**Q.** And the “SAE to Day 30: Bronchitis, n (%)” value (100 mcg/kg/d IV 48 h)?
**A.** 0 n (%)

**Q.** And the “SAE to Day 30: Cardiac failure, n (%)” value (100 mcg/kg/d IV 48 h)?
**A.** 0 n (%)

**Q.** And the “SAE to Day 30: Cerebrovascular accident, n (%)” value (100 mcg/kg/d IV 48 h)?
**A.** 0 n (%)

**Q.** What about the “SAE to Day 30: Hypotension, n (%)” value (100 mcg/kg/d IV 48 h) of the same substance?
**A.** 0 n (%)

**Q.** What about the “SAE to Day 30: Noncardiac chest pain, n (%)” value (100 mcg/kg/d IV 48 h) of the same substance?
**A.** 0 n (%)

**Q.** What about the “SAE to Day 30: Pneumonia, n (%)” value (100 mcg/kg/d IV 48 h) of the same substance?
**A.** 0 n (%)

**Q.** What about the “SAE to Day 30: Renal failure, n (%)” value (100 mcg/kg/d IV 48 h) of the same substance?
**A.** 0 n (%)

**Q.** What about the “SAE to Day 30: Urinary retention, n (%)” value (100 mcg/kg/d IV 48 h) of the same substance?
**A.** 2 (5.3%) n (%)

**Q.** And the “SAE to Day 30: Urinary tract infection, n (%)” value (100 mcg/kg/d IV 48 h)?
**A.** 0 n (%)

**Q.** And the “SAE to Day 30: Ventricular fibrillation, n (%)” value (100 mcg/kg/d IV 48 h)?
**A.** 0 n (%)

**Q.** And the “mean change in creatinine” value (100 mcg/kg/d IV 48 h)?
**A.** 0.08 ± 0.39 mg/dL

**Q.** What about the “mean decrease in SBP compared to placebo during infusion” value (100 mcg/kg/d IV 48 h) of the same substance?
**A.** 3-4 mmHg

**Q.** And the “proportion of patients at Day 14 with an increase in creatinine of 0.3 mg/dL or more” value (100 mcg/kg/d IV 48 h)?
**A.** 24.2%

**Q.** What about the “change from baseline” value (100 mcg/kg/d IV 48 h) of the same substance?
**A.** 0.25%

**Q.** And the “Patients with any AE from Day 15 to Day 30, n (%)” value (250 mcg/kg/d IV 48 h)?
**A.** 3 (6.1%) n (%)

**Q.** And the “Patients with any SAEs to Day 30, n (%)” value (250 mcg/kg/d IV 48 h)?
**A.** 8 (16.3%) n (%)

**Q.** And the “Patients with any adverse events to Day 30, n (%)” value (250 mcg/kg/d IV 48 h)?
**A.** 25 (51.0%) n (%)

**Q.** And the “Protocol-specified study drug discontinuation due to blood pressure reduction” value (250 mcg/kg/d IV 48 h)?
**A.** 16.3%

**Q.** And the “Renal impairment: Patients with ≧0.3 mg/dL increase in creatinine at Day 5” value (250 mcg/kg/d IV 48 h)?
**A.** 10 (22.7%) n (%)

**Q.** And the “Renal impairment: Patients with ≧0.3 mg/dL increase in creatinine at Day 5 and Day 14” value (250 mcg/kg/d IV 48 h)?
**A.** 7 (15.2%) + n (%)

**Q.** What about the “Renal impairment: Patients with ≧25% increase in creatinine at Day 5” value (250 mcg/kg/d IV 48 h) of the same substance?
**A.** 12 (25.5%) n (%)

**Q.** And the “SAE to Day 30: Acute respiratory failure, n (%)” value (250 mcg/kg/d IV 48 h)?
**A.** 0 n (%)

**Q.** And the “SAE to Day 30: Bronchitis, n (%)” value (250 mcg/kg/d IV 48 h)?
**A.** 1 (2.0%) n (%)

**Q.** What about the “SAE to Day 30: Cardiac failure, n (%)” value (250 mcg/kg/d IV 48 h) of the same substance?
**A.** 2 (6.1%) n (%)

**Q.** And the “SAE to Day 30: Cerebrovascular accident, n (%)” value (250 mcg/kg/d IV 48 h)?
**A.** 0 n (%)

**Q.** What about the “SAE to Day 30: Hypotension, n (%)” value (250 mcg/kg/d IV 48 h) of the same substance?
**A.** 2 (4.1%) n (%)

**Q.** And the “SAE to Day 30: Noncardiac chest pain, n (%)” value (250 mcg/kg/d IV 48 h)?
**A.** 1 (2.0%) n (%)

**Q.** And the “SAE to Day 30: Pneumonia, n (%)” value (250 mcg/kg/d IV 48 h)?
**A.** 0 n (%)

**Q.** And the “SAE to Day 30: Renal failure, n (%)” value (250 mcg/kg/d IV 48 h)?
**A.** 0 n (%)

**Q.** What about the “SAE to Day 30: Urinary retention, n (%)” value (250 mcg/kg/d IV 48 h) of the same substance?
**A.** 0 n (%)

**Q.** What about the “SAE to Day 30: Urinary tract infection, n (%)” value (250 mcg/kg/d IV 48 h) of the same substance?
**A.** 1 (2.0%) n (%)

**Q.** And the “SAE to Day 30: Ventricular fibrillation, n (%)” value (250 mcg/kg/d IV 48 h)?
**A.** 0 n (%)

**Q.** What about the “mean change in creatinine” value (250 mcg/kg/d IV 48 h) of the same substance?
**A.** 0.10 ± 0.39 mg/dL

**Q.** And the “proportion of patients at Day 14 with an increase in creatinine of 0.3 mg/dL or more” value (250 mcg/kg/d IV 48 h)?
**A.** 37.2%

**Q.** And the “change from baseline” value (250 mcg/kg/d IV 48 h)?
**A.** 0.64%

**Q.** What about the renal toxicity (AHF and/or acute vascular failure patients) of the same substance?
**A.** low to no renal toxicity

**Q.** What about the safety and tolerability (AHF patients, all doses) of the same substance?
**A.** no safety or tolerability issues

**Q.** What about the “hypotension in patients with baseline SBP below the median” value (FIGS. 22A and 22B) of the same substance?
**A.** does not cause deleterious hypotension

**Q.** What about the “trough SBP” value (all cases with blood pressure reduction) of the same substance?
**A.** ≥ 80 mmHg

**Q.** What about the “mean change in pulse from baseline through day 14” value (all relaxin groups vs placebo, FIG. 20) of the same substance?
**A.** not chronotropic

**Q.** What about the “average decrease in systolic blood pressure over all time points during infusion vs placebo” value (all relaxin groups, FIG. 21) of the same substance?
**A.** did not differ

**Q.** And the “patients who received intravenous fluids for hypotension” value (four relaxin-treated groups together (5 patients))?
**A.** 3.0%

**Q.** And the “patients with SBP reductions in whom SBP stabilized or rose with no therapy after discontinuation of study drug” value (relaxin-treated patients, all doses)?
**A.** 18 of 23

**Q.** What about the “Total number of SAEs” value (10 mcg/kg/d IV 48 h) of the same substance?
**A.** 8

**Q.** What about the “Total number of SAEs” value (30 mcg/kg/d IV 48 h) of the same substance?
**A.** 12

**Q.** What about the “Total number of SAEs” value (100 mcg/kg/d IV 48 h) of the same substance?
**A.** 3

**Q.** What about the “Total number of SAEs” value (250 mcg/kg/d IV 48 h) of the same substance?
**A.** 11
